Literature values in paper PMC5757840.

Molecular target: SNARE complex (Rattus norvegicus) (UniProt P32851)
Sequence of UniProt P32851 (P32851 whole entry, chain 1 of 3): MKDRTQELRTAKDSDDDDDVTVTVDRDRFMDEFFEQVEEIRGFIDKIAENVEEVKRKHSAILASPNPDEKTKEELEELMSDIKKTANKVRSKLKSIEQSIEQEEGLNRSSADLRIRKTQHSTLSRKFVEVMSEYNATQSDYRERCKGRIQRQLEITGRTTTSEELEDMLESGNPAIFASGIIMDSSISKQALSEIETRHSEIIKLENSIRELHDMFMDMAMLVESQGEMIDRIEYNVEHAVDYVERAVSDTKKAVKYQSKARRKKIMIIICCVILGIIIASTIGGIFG
Sequence of UniProt P32851 (B2RAU4 whole entry, chain 2 of 3, further chain): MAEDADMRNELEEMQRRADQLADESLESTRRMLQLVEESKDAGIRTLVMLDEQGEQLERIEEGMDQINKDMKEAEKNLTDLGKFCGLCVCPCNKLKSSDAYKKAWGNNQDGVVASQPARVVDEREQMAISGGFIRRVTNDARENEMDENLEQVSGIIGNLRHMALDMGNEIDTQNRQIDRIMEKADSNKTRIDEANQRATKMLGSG
Sequence of UniProt P32851 (P63044 2-116, chain 3 of 3, further chain): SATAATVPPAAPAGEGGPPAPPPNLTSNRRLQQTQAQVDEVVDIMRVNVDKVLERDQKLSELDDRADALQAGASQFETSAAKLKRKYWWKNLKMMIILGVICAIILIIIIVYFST

Kd: 900 nM
Substance: Syt1 (from UniProt P21707)
